This passage reports thermal stability score and melting temperature results from the supplement of paper PMC5998384.

Data set [1] deals with HeLa Kyoto. In words: thermal stability score vs G1/S (z-score of summed log2 fold changes over temperatures); higher = more thermally stable than in G1/S.
The subject of data set [2] is HeLa Kyoto. Briefly: melting temperature (median over replicates), in situ; higher = more thermally stable.
The mark [3] stands for this setting: cell cycle stage: early G1 (4.5 h after nocodazole release).
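For melting temperature (median over replicates), in situ in this document: HeLa Kyoto cells synchronized by double thymidine or nocodazole block, proteins quantified by TMT10plex mass spectrometry, three independent biological replicates.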
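For thermal stability score vs G1/S (z-score of summed log2 fold changes over temperatures) in this document: synchronized HeLa Kyoto cells, proteins quantified by TMT10plex mass spectrometry, three biological replicates, mitosis taken 0.5 h after nocodazole release, G1/S directly after double thymidine block.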

Sequence of MSRB2 (chain, as listed by the source): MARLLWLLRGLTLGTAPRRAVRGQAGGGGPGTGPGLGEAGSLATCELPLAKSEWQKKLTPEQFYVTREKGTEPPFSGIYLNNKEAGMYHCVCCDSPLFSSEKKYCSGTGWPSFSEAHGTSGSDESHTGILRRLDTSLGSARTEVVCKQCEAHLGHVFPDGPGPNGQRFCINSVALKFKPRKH
Sequence of GORASP1 (chain, as listed by the source): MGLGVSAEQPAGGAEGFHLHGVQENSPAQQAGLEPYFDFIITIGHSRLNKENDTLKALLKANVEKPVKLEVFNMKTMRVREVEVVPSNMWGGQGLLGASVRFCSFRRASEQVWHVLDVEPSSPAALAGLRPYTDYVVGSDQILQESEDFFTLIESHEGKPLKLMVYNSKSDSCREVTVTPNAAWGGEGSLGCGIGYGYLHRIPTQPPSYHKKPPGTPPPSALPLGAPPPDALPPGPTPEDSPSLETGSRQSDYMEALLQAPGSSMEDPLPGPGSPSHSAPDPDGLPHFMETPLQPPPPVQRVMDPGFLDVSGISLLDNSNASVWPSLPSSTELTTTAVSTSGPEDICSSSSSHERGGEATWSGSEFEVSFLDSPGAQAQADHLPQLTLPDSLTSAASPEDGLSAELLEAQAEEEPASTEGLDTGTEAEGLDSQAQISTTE

DENND4B: the thermal stability score with HeLa Kyoto [1] (setting [3]) is -0.499; with HeLa Kyoto [1] (cell cycle stage: mitosis), -0.617.

On to GORASP1, for which the thermal stability score was found to be 0.552 with HeLa Kyoto [1] (setting [3]) and 0.301 in the data set on HeLa Kyoto [1] (cell cycle stage: mitosis).

As to “MAAAEEGCSVGAEADRELEELLESALDDFDKAKPSPAPPSTTTAPDASGPQKRSPGDTAKDALFASQEKFFQELFDSELASQATAEFEKAMKELAEEEPHLVEQFQKLSEAAGRVGSDMTSQQEFTSCLKETLSGLAKNATDLQNSSMSEEELTKAMEGLGMDEGDGEGNILPIMQSIMQNLLSKDVLYPSLKEITEKYPEWLQSHRESLPPEQFEKYQEQHSVMCKICEQFEAETPTDSETTQKARFEMVLDLMQQLQDLGHPPKELAGEMPPGLNFDLDALNLSGPPGASGEQCLIM [G3V3G9|DCAF8]”, the thermal stability score with HeLa Kyoto [1] (setting [3]) was 0.212; with HeLa Kyoto [1] (cell cycle stage: mitosis) it was -1.

Regarding “MAGVSACIKYSMFTFNFLFWLCGILILALAIWVRVSNDSQAIFGSEDVGSSSYVAVDILIAVGAIIMILGFLGCCGAIKESRCMLLLFFIGLLLILLLQVATGILGAVFKSKSDRIVNETLYENTKLLSATGESEKQFQEAIIVFQEEFKCCGLVNGAADWGNNFQHYPELCACLDKQRPCQSYNGKQVYKETCISFIKDFLAKNLIIVIGISFGLAVIEILGLVFSMVLYCQIGNK [TSPAN8]”, the thermal stability score with HeLa Kyoto [1] (setting [3]) was 1.86; in the data set with HeLa Kyoto [1] (cell cycle stage: mitosis) it was -1.57.

“MALSRVCWARSAVWGSAVTPGHFVTRRLQLGRSGLAWGAPRSSKLHLSPKADVKNLMSYVVTKTKAINGKYHRFLGRHFPRFYVLYTIFMKGLQMLWADAKKARRIKTNMWKHNIKFHQLPYREMEHLRQFRQDVTKCLFLGIISIPPFANYLVFLLMYLFPRQLLIRHFWTPKQQTDFLDIYHAFRKQSHPEIISYLEKVIPLISDAGLRWRLTDLCTKIQRGTHPAIHDILALRECFSNHPLGMNQLQALHVKALSRAMLLTSYLPPPLLRHRLKTHTTVIHQLDKALAKLGIGQLTAQEVKSACYLRGLNSTHIGEDRCRTWLGEWLQISCSLKEAELSLLLHNVVLLSTNYLGTRR [LETMD1]”: the thermal stability score in the data set on HeLa Kyoto [1] (setting [3]) is -0.886; with HeLa Kyoto [1] (cell cycle stage: mitosis), -0.884.

For the substance “MAQRAVWLISHEPGTPLCGTVRFSRRYPTVEKRARVFNGASYVPVPEDGPFLKALLFELRLLDDDKDFVESRDSCSRINKTSIYGLLIGGEELWPVVAFLKNDMIYACVPLVEQTLSPRPPLISVSGVSQGFEFLFGIQDFLYSGQKNDSELNTKLSQLPDLLLQACPFGTLLDANLQNSLDNTNFASVTQPQKQPAWKTGTYKGKPQVSISITEKVKSMQYDKQGIADTWQVVGTVTCKCDLEGIMPNVTISLSLPTNGSPLQDILVHPCVTSLDSAILTSSSIDAMDDSAFSGPYKFPFTPPLESFNLCFYTSQVPVPPILGFYQMKEEEVQLRITINLKLHESVKNNFEFCEAHIPFYNRGPITHLEYKTSFGQLEVFREKSLLIWIIGQKFPKSMEISLSGTVTFGAKSHEKQPFDPICTGETAYLKLHFRILDYTLTGCYADQHSVQVFASGKPKISAHRKLISSDYYIWNSKAPAPVTYGSLLL [AP5M1]”, the thermal stability score is 2.33e-19 in the data set on HeLa Kyoto [1] (setting [3]) and -1.74e-18 with HeLa Kyoto [1] (cell cycle stage: mitosis).

Consider “MEERERGARSAGAGSPARPPSPRLDVSSDSFDPLLALYAPRLPPIPYPNAPCFNNVAEYESFLRTGVRGGGRGRGRARGAAAGSGVPAAPGPSGRTRRRPDAPAPDPERIQRLRRLMVAKEEGDGAAGAGRRGPGRSRKAPRNVLTRMPLHEGSPLGELHRCIREGVKVNVHIRTFKGLRGVCTGFLVAFDKFWNMALTDVDETYRKPVLGKAYERDSSLTLTRLFDRLKLQDSSKKEADSKSAVEDSTLSRYSQTSTWKLASVWGRADTGRGSHKRSRSVPSSLQASAREESRSELSGRTTRTDGSSVGGTFSRATTLSRGQSRKKKRKPKVDYQQVFTRHINQIFIRGENVLLVHLAQ [LSM11]”, for which the thermal stability score in the data set with HeLa Kyoto [1] (setting [3]) amounted to 0.976; in the data set on HeLa Kyoto [1] (cell cycle stage: mitosis) it was 0.837.

Regarding “MLILTKTAGVFFKPSKRKVYEFLRSFNFHPGTLFLHKIVLGIETSCDDTAAAVVDETGNVLGEAIHSQTEVHLKTGGIVPPAAQQLHRENIQRIVQEALSASGVSPSDLSAIATTIKPGLALSLGVGLSFSLQLVGQLKKPFIPIHHMEAHALTIRLTNKVEFPFLVLLISGGHCLLALVQGVSDFLLLGKSLDIAPGDMLDKVARRLSLIKHPECSTMSGGKAIEHLAKQGNRFHFDIKPPLHHAKNCDFSFTGLQHVTDKIIMKKEKEEGIEKGQILSSAADIAATVQHTMACHLVKRTHRAILFCKQRDLLPQNNAVLVASGGVASNFYIRRALEILTNATQCTLLCPPPRLCTDNGIMIAWNGIERLRAGLGILHDIEGIRYEPKCPLGVDISKEVGEASIKVPQLKMEI [OSGEPL1]”, the melting temperature is 53.6 °C in the data set on HeLa Kyoto [2] (cell cycle stage: G1/S) and 51.1 °C in the data set on HeLa Kyoto [2] (cell cycle stage: mitosis).

“MLQQDSNDDTEDVSLFDAEEETTNRPRKAKIRHPVASFFHLFFRVSAIIVCLLCELLSSSFITCMVTIILLLSCDFWAVKNVTGRLMVGLRWWNHIDEDGKSHWVFESRKESSQENKTVSEAESRIFWLGLIACSVLWVIFAFSALFSFTVKWLRRSRHIAQTGLKVLGSRDPPASAFQSAGITGVSRCPGHPSRKFHQVDINSFTRITDRALYWKPAPRLSSPPLRAAPGNCQQMAPARLFLSLRLWAWRGGGESPNSRGTGEPGPKFHLASGMH [TVP23C]” registered a melting temperature in the data set on HeLa Kyoto [2] (cell cycle stage: mitosis) of 56 °C.

With “MNILPKKSWHVRNKDNVARVRRDEAQAREEEKERERRVLLAQQEARTEFLRKKARHQNSLPELEAAEAGAPGSGPVDLFRELLEEGKGVIRGNKEYKEEKRQEKERQEKALGILTYLGQSAAEAQTQPPWYQLPPGRGGPPPGPAPDEKIKSRLDPLREMQKHLGKKRQHGGDEGSRSRKEKEGSEKQRPKEPPSLDQLRAERLRREAAERSRAEALLARVQGRALQEGQPEEDETDDRRRRYNSQFNPQLARRPRQQDPHLTH [LENG1]”, in the data set with HeLa Kyoto [2] (cell cycle stage: mitosis), the melting temperature came to 52.5 °C.

For the substance “MPFRLLIPLGLLCALLPQHHGAPGPDGSAPDPAHYRERVKAMFYHAYDSYLENAFPFDELRPLTCDGHDTWGSFSLTLIDALDTLLILGNVSEFQRVVEVLQDSVDFDIDVNASVFETNIRVVGGLLSAHLLSKKAGVEVEAGWPCSGPLLRMAEEAARKLLPAFQTPTGMPYGTVNLLHGVNPGETPVTCTAGIGTFIVEFATLSSLTGDPVFEDVARVALMRLWESRSDIGLVGNHIDVLTGKWVAQDAGIGAGVDSYFEYLVKGAILLQDKKLMAMFLEYNKAIRNYTRFDDWYLWVQMYKGTVSMPVFQSLEAYWPGLQSLIGDIDNAMRTFLNYYTVWKQFGGLPEFYNIPQGYTVEKREGYPLRPELIESAMYLYRATGDPTLLELGRDAVESIEKISKVECGFATIKDLRDHKLDNRMESFFLAETVKYLYLLFDPTNFIHNNGSTFDAVITPYGECILGAGGYIFNTEAHPIDPAALHCCQRLKEEQWEVEDLMREFYSLKRSRSKFQKNTVSSGPWEPPARPGTLFSPENHDQARERKPAKQKVPLLSCPSQPFTSKLALLGQVFLDSS [EDEM2]”, the melting temperature in the data set with HeLa Kyoto [2] (cell cycle stage: G1/S) stood at 55.3 °C.

In the case of “MPSSLPGSQVPHPTLDAVDLVEKTLRNEGTSSSAPVLEEGDTDPWTLPQLKDTSQPWKELRVAGRLRRVAGSVLKACGLLGSLYFFICSLDVLSSAFQLLGSKVAGDIFKDNVVLSNPVAGLVIGVLVTALVQSSSTSSSIVVSMVAAKLLTVRVSVPIIMGVNVGTSITSTLVSMAQSGDRDEFQRAFSGSAVHGIFNWLTVLVLLPLESATALLERLSELALGAASLTPRAQAPDILKVLTKPLTHLIVQLDSDMIMSSATGNATNSSLIKHWCGTTGQPTQENSSCGAFGPCTEKNSTAPADRLPCRHLFAGTELTDLAVGCILLAGSLLVLCGCLVLIVKLLNSVLRGRVAQVVRTVINADFPFPLGWLGGYLAVLAGAGLTFALQSSSVFTAAVVPLMGVGVISLDRAYPLLLGSNIGTTTTALLAALASPADRMLSALQVALIHFFFNLAGILLWYLVPALRLPIPLARHFGVVTARYRWVAGVYLLLGFLLLPLAAFGLSLAGGMELAAVGGPLVGLVLLVILVTVLQRRRPAWLPVRLRSWAWLPVWLHSLEPWDRLVTRCCPCNVCSPPKATTKEAYCYENPEILASQQL [SLC34A3]”, the melting temperature in the data set with HeLa Kyoto [2] (cell cycle stage: mitosis) came to 57.5 °C.

In the data set with HeLa Kyoto [2] (cell cycle stage: mitosis), “MQFMLLFSRQGKLRLQKWYVPLSDKEKKKITRELVQTVLARKPKMCSFLEWRDLKIVYKRYASLYFCCAIEDQDNELITLEIIHRYVELLDKYFGSVCELDIIFNFEKAYFILDEFLLGGEVQETSKKNVLKAIEQADLLQEEAETPRSVLEEIGLT [AP1S2]” yielded a melting temperature of 49.7 °C.

Consider “MRWRTILLQYCFLLITCLLTALEAVPIDIDKTKVQNIHPVESAKIEPPDTGLYYDEYLKQVIDVLETDKHFREKLQKADIEEIKSGRLSKELDLVSHHVRTKLDELKRQEVGRLRMLIKAKLDSLQDIGMDHQALLKQFDHLNHLNPDKFESTDLDMLIKAATSDLEHYDKTRHEEFKKYEMMKEHERREYLKTLNEEKRKEEESKFEEMKKKHENHPKVNHPGSKDQLKEVWEETDGLDPNDFDPKTFFKLHDVNSDGFLDEQELEALFTKELEKVYDPKNEEDDMVEMEEERLRMREHVMNEVDTNKDRLVTLEEFLKATEKKEFLEPDSWETLDQQQFFTEEELKEYENIIALQENELKKKADELQKQKEELQRQHDQLEAQKLEYHQVIQQMEQKKLQQGIPPSGPAGELKFEPHI [NUCB2]”, for which the melting temperature in the data set on HeLa Kyoto [2] (cell cycle stage: G1/S) was 55.5 °C; in the data set on HeLa Kyoto [2] (cell cycle stage: mitosis) it was 56.9 °C.

For the substance “MSKRNQVSYVRPAEPAFLARFKERVGYREGPTVETKRIQPQPPDEDGDHSDKEDEQPQVVVLKKGDLSVEEVMKIKAEIKAAKADEEPTPADGRIIYRKPVKHPSDEKYSGLTASSKKKKPNEDEVNQDSVKKNSQKQIKNSSLLSFDNEDENE [KIAA1143]”, the melting temperature in the data set on HeLa Kyoto [2] (cell cycle stage: mitosis) came to 52 °C.

On to MSRB2, for which the values for the melting temperature with HeLa Kyoto [2] (cell cycle stage: G1/S) and in the data set with HeLa Kyoto [2] (cell cycle stage: mitosis) were 52.4 °C and 52.6 °C, respectively.

In turn, “MWSRLVWLGLRAPLGGRQGFTSKADPQGSGRITAAVIEHLERLALVDFGSREAVARLEKAIAFADRLRAVDTDGVEPMESVLEDRCLYLRSDNVVEGNCADELLQNSHRVVEEYFVAPPGNISLPKLDEQEPFPHS [GATC]” came in with a melting temperature in the data set with HeLa Kyoto [2] (cell cycle stage: G1/S) of 51.7 °C.
